From the nanobody polyreactivity screen of Harvey et al. (2022)

Assay: yeast display, Sf9 membrane polyspecificity reagent, FACS + sequencing; frameworks hold sequencing errors
Outline: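 Synthetic nanobody libraries on Saccharomyces cerevisiae BJ5465 were galactose-induced for 36–48 hours, stained 1 hour at 4 °C with 10% biotinylated, detergent-solubilized Sf9 membrane reagent and enriched on streptavidin microbeads. FACS then separated cells into low and high (top ~1%) gates by anti-HA (expression) and streptavidin (reagent binding) fluorescence. Genes were colony-PCR amplified, MiSeq 2 × 250 sequenced and CDR-length filtered. A clone's polyreactivity label is that of its gate of origin.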

Sequence	polyreactivity (PSR sort gate)
QVQLVESGGGLVQAGGSLRLSCAASGITFTYYAMGWYRQAPGKERELVDAITDRGGRTYYSDSVKGRFTISRDNAKNTVYIQMNSLKPEDTAVYYCAAYVPQGYKLYYWGQGTQVTVSS	high polyreactivity
QVQLVESGGGLVQAGGSLRLSCAASGITFVDNAMGWYRQAPGKERELVAVISSSGGSTYYADSVKGRFTISRDNAKNTVYLQMNSLKPEDTAVYYCAARNRFYRRPYDYWGQGTQVTVSS	high polyreactivity
QVQLVESGGGLVQAGGSLRLSCAASGITFVDYVMGWYRQAPGKERELVAAISRGGSRTKYADSVKGRFTISRDNAKNTVYLQMNSLKPEDTAVYYCAAPWLVNHYYPSQEYDYWGQGTQVTVSS	high polyreactivity
QVQLVESGGGLVQAGGSLRLSCAASGITFVFYAMGWYRQAPGKERELVAAISWSGGITYYADSVKGRFTISRDNAKNTVYLQMNSLKPEDTAVYYCAARISWEKYQAGYDYWGQGTQVTVSS	low polyreactivity
QVQLVESGGGLVQAGGSLRLSCAASGITFVGNAMGWYRQAPGKERELVAGIRGNGGSTYYADSVKGRFTISRDNAKYTVYLQMNSLKPEDTAVYYCAAAAYYADFDYWGQGTQVTVSS	low polyreactivity
QVQLVESGGGLVQAGGSLRLSCAASGITFVLNVMGWYRQAPGKERELVAAISWSVGGTYYADSVKGRFTISRDNAKNTVYLQMNSLKPEDTAVYYCAAGSYAYDNYGSEYWKWYGYWGQGTQVTVSS	low polyreactivity
QVQLVESGGGLVQAGGSLRLSCAASGITFVLYAMGWYRQAPGKERELVAAISSGGRTKYADSVKGRFTISRDNAKNTVYLQMNSLKPEDTAVYYCATKTRYLYPAYYYWGQGTQVTVSS	high polyreactivity
QVQLVESGGGLVQAGGSLRLSCAASGITFVRNAMGWYRQAPGKEREFVAAISRSGTTTYYADSVKGRFTISRDNAKNTVYLQMNSLKPEETAVYYCAAVRWVRYRTSAYEYWGQGTQVTVSS	high polyreactivity
QVQLVESGGGLVQAGGSLRLSCAASGITFVRNAMGWYRQAPGKERELVAAISGRGGITYYADSVKGRFTISRDNAKNTVYLQMNSLKPEDTAVYYCAASSAGSSYNYWGQGTQVTVSS	high polyreactivity
QVQLVESGGGLVQAGGSLRLSCAASGITFVRYALGWYRPAPGKERELVAAISRRGGSTYYADSVKGRFTISRDNAKNTVYLQMNSLKPEDTAVYYCNAQRPKATVWQLYDSWGQGTQVTVSS	high polyreactivity
QVQLVESGGGLVQAGGSLRLSCAASGITFVRYTMGWYRQAPGKEREFVAGITRGGSTYYADSVKGRFTISRDNAKNTVYLQMNSLKPEDTAVYYCAARPRFLRASVEYDYWGQGTQVTVSS	high polyreactivity
QVQLVESGGGLVQAGGSLRLSCAASGITFVSNVMGWYRQAPGKEREFVAAITGRGDSTYADSVKGRFTISRDNAKNTVYLQMNSLKPEDTAFYYCNRESDIYSFVAMNYWGQGTQVTVSS	low polyreactivity
QVQLVESGGGLVQAGGSLRLSCAASGITFVSYGMGWYRQAPGKERELVAAISSGGRTYADSVKGRFTISRDNAKNTVYLQMNSLKPEDTAVYYCNARDYASGTEGDYWGQGTLVTVSS	low polyreactivity
QVQLVESGGGLVQAGGSLRLSCAASGITFVTYAMGWSRQAPGKERELVADISWRGTSTNYADSVKGRFTISRDNAKNTVYFQMISLKPEDTAVYYCAAKQTYTRLHYLGPSVWDNYDYWGQGTQVTVSS	high polyreactivity
QVQLVESGGGLVQAGGSLRLSCAASGITFVVYAMGCYRPAPGKERELVASITYSGGSTYYADSVQGRFTISRDNAKNTVYLQMTSLKPEDTAVYYCNADGYTIYYLPYSDYDAYDYWGQGTQVTVSS	low polyreactivity
QVQLVESGGGLVQAGGSLRLSCAASGITFVWYDMGGYRQAPGKEREFVAVISKRGGSTYYADSVKGRFTISRDNAKNTVYLQMNSLKPEDTAVYYCAASYNLYRRYYYWGQGTQVTVSS	high polyreactivity
QVQLVESGGGLVQAGGSLRLSCAASGITFVWYDMGWYRQAPGKEREFVAVISKRGGSTYYADSVKGRFTISRDNAKNTVYLQMNSLKPEDTAVYYCAASYNLYRRYYYWGQGTQVTVSS	high polyreactivity
QVQLVESGGGLVQAGGSLRLSCAASGITFVYYAMGWYRQAPGKERELVAAITSDGGSTYYADSVKGRFTISRDNAKNTVYLQMNSLKPEDTAVYYCAAEWTSWSWWYGWYEFDYWGQGTQVTVSS	high polyreactivity
QVQLVESGGGLVQAGGSLRLSCAASGITFVYYAMGWYRQAPGKERELVASISSGGSTYYADSVKGRFTISRDNAKNTVYLQMNSLKPEDTAVYYCAAPTGWYPAYCEYEYWGQGTQVTVSS	low polyreactivity
QVQLVESGGGLVQAGGSLRLSCAASGITFVYYVMGWYRQAPGKERELVAGISSGGSTYYADSVKGRFTISRDNAKNTVYLQMNSLKPEDTAVYYCAAVSTPYYGHVKRYYYWGQGTQVTVSS	high polyreactivity
QVQLVESGGGLVQAGGSLRLSCAASGITFWGYAMGWYRQAPGKEREFVARINWSGGRTYYAESVKGRFTISRDNAKNTVYLQMNSLKPEDTAVYYCAATSLIYGYRTYDYWGQGTQVTVSS	high polyreactivity
QVQLVESGGGLVQAGGSLRLSCAASGITFWGYAMGWYRQAPGKEREFVARINWSGGRTYYAESVKGRFTISRDNAKNTVYLQMNSLKPEDTAVYYCNVVLRSVVSGDYWVQGTQVTVSS	high polyreactivity

Sequence	polyreactivity (PSR sort gate)
QVQLVESGGGLVQAGGSLRLSCAASGITFWPYAMGWYIQAPGKERELVAAIRASAGRTYYADSVKGRFTISRDNAKNTVYLQMNSLKPEDTAVYYCNAYGRYGKFRVEYDYWGQGTQVTVSS	low polyreactivity
QVQLVESGGGLVQAGGSLRLSCAASGITFWRYAMGWYRQAPGKERELVAAIDWSGGDTYYADSVKGRFTISRDNAKNTVYLQMNRLKPEDTAVYYCATDRYAYKLYDYWGQGTQVTVSS	low polyreactivity
QVQLVESGGGLVQAGGSLRLSCAASGITFWSNAMGWYRQAPGKERELVAAITSSGGSAYYADSVKGRFTISRDNAKNTVYLQMNSLKPEDTAVYYCAAPISRSAGWDSYDYWGQGTQVTVSS	low polyreactivity
QVQLVESGGGLVQAGGSLRLSCAASGITFWVYAMGWYRQSPGKESELVATISRSGGRTYYADSVKGRFTISRDNAKTTVYLQMNSLKPEDTAVYYCAARYRNVLGYDYDFWGQGTQVTVSS	high polyreactivity
QVQLVESGGGLVQAGGSLRLSCAASGITFWYNAMGWYRQAPGKERELVAAISGGGGSTYYADSVKGRFTISRDNAMNTVYLQMNSLKPEDTAVYYCAARQVARVYSGRYGYWGQGTQVTVSS	high polyreactivity
QVQLVESGGGLVQAGGSLRLSCAASGITFYDNAMGWYRQAPGKERELVAGISSGGRTYYADSVKGRFTISRDNAKNTVYLQMNSLKPEDTAVYYCNAASLVAYLARLGRDYWGQGTQVTVSS	low polyreactivity
QVQLVESGGGLVQAGGSLRLSCAASGITFYDNVMGWYRQAPGKERELVAAITSGGSTNYGDSVKGRFTFSRDNAKNTVYLQMNSLKPEETAVYYCAAQPRVVYEFPYRYGYWGQGTQVTVSS	low polyreactivity
QVQLVESGGGLVQAGGSLRLSCAASGITFYDYAMGWYRQAPGKERELVAAISGGGITYYADSVKGRFTISRDNAKNTVYLQMNSLKPEDTAVYYCAAERYSPSVGYDYWGQGTQVTVSS	low polyreactivity
QVQLVESGGGLVQAGGSLRLSCAASGITFYDYDMGWYIQAPGKERELVADISYSGGGTYYADSVKGRFTISRDNAKNTVYLQMNSLKPEDTAVYYCAADSQRYYGDYYWGQGTQVTVSS	high polyreactivity
QVQLVESGGGLVQAGGSLRLSCAASGITFYEYAMGWYRQAHGKERELVAAISQSGGSTYYADSVKGRFTISRDNAKNTVYLQMNSLKPEDTAVYYCAADIKWSIRRAYDYWGQGTQVTVSS	high polyreactivity
QVQLVESGGGLVQAGGSLRLSCAASGITFYEYAMGWYRQAPGKERELVAAITSGGTTNYADSVKGRFTISRDNAKNTVYLQMNSLKPEDTAVYYCAKDEGEGYDYWGQGTQVTVSS	low polyreactivity
QVQLVESGGGLVQAGGSLRLSCAASGITFYFYAMGWYRQAPGKERELVAAISGSSGSTYYADSVKGRFTISRDNAKNTVYLQMNSLKPEDTAVYYCAAYNRWSGGFEYWGQGTQVTVSS	high polyreactivity
QVQLVESGGGLVQAGGSLRLSCAASGITFYFYTMGWYRPAPGKERELVAAITSSGGTTYYADSVKGRFTISRDNAKNTVYLQMNSLKPEDTAVYYCAARRWYQSRRGGFDYWGQGTQVTVSS	high polyreactivity
QVQLVESGGGLVQAGGSLRLSCAASGITFYGYAMGWYRPAPGKERELVARITISGRTNYADYVKGRFTISRDNAKNTVYLQMNSLKPEDTAVYYCATLVHWSYPYYYWGQGTQVTVSS	high polyreactivity
QVQLVESGGGLVQAGGSLRLSCAASGITFYGYAMGWYRQAPGKERELVAAISESGGSTYYADSVKGRFTISRDNAKNSVYLQMNRLKEEDTAVYYCASQGYSVYWYSNYWGQCTQVTVSS	low polyreactivity
QVQLVESGGGLVQAGGSLRLSCAASGITFYGYAMGWYRQAPGKERELVAAISESGGSTYYADSVKGRFTISRDNAKNTVYLQMNSLKPEDTAVYYCNAESYSTWSFGHRYEYDYWGQGTQVTVSS	low polyreactivity
QVQLVESGGGLVQAGGSLRLSCAASGITFYGYAMGWYRQAPGKERELVAVITSSGSSTYYADSVKGRFTISRDNAKNTVYLQMNSLKPEDTAVYYCNARPGRRSLRSRTYDYWGQGTQVTVSS	high polyreactivity
QVQLVESGGGLVQAGGSLRLSCAASGITFYGYVMGWYRQAPGKERELVAAISVRGGSTYYADSVKGRFTISRDNAKNTVYLQMNSLKPEDTAVYYSAAWSYAYYYRLRYVSHDYWRQGTQVTVSS	high polyreactivity
QVQLVESGGGLVQAGGSLRLSCAASGITFYHNAMGWYRPAPRKERELVATISRRGGRTYYADSVKGRFTISRDNAKNTVYLQMNSLKPEDTAVYYCAAAQKQSRYDYWGQGTQVTVSS	high polyreactivity
QVQLVESGGGLVQAGGSLRLSCAASGITFYHYAMGWYRQAPGKEREFVASITSSGGSTYYADSVKGRFTISRDNAKNTVYLQMNSLKPDDSAVYYCAARGYNPYGRKVGYLGQGTQVTVSS	high polyreactivity
QVQLVESGGGLVQAGGSLRLSCAASGITFYHYAMGWYRQAPGKERELVAAISRSGGSTSYADSVMGRFTISRDNAKNTVYLQMNSLKPEDTAVYYCAARLVRESEPLGYWGQGTQVTVSS	high polyreactivity
